Patent publication US10022453B2 (BAYER PHARMA AKTIENGESELLSCHAFT, priority 2013, dated 2018)

Experiments:
Caco-2 cells = assay: Cell permeability, flux assay using Caco-2 cells
[1] = molecular target: T1, recombinant human TWEAKR protein (TPP-2305) (Homo sapiens, UniProt Q9NP84); assay: Binding affinities by Biacore analysis; settings: monovalent
T1 construct: purchased Fitzgerald Inc 30R-AT080
Method: Determination of Binding Affinities by Biacore Analysis:
Binding affinities of anti-TWEAKR antibodies were examined using surface plasmon resonance analysis on a Biacore T100 instrument (GE Healthcare Biacore, Inc.). The antibodies were immobilized on a CM5 sensor chip using an indirect capture reagent, anti-human IgG(Fc). […] Anti-TWEAKR antibodies were injected at a concentration of 10 μg/ml at […] for 10 sec.
Sensorgrams were generated after in-line reference cell correction, followed by subtraction of the buffer sample. The dissociation constant (KD) was calculated based on the ratio of association (kon) and dissociation (koff) constants, obtained by fitting sensorgrams using a 1:1 first order binding model.

TWEAKR-Fc WT (TPP-599) = molecular target: T2, TWEAKR-Fc WT (TPP-599) (Homo sapiens, UniProt Q9NP84); assay: ELISA, effect of TWEAKR-Fc muteins on antibody binding; settings: 62 ng/ml TWEAKR-Fc coated, biotinylated IgG from 100 nM
T2 construct: hTNFRSF12 amino acids a28-80-hIgG1-Fc
Method: (§1) Effect of TWEAKR-Fc Muteins on the Antibody Affinity
(§2) To this end, the full-length ectodomain (amino acids 28-80) having the individual amino acid substitutions below were expressed and purified as Fc fusion proteins: T33Q; S40R; W42A; M50A; R56P; H60K; L65Q.
(§3) Detection was carried out using streptavidin-HRP and Amplex Red.
(§4) The dose-reaction data were fitted and the IC50s were determined.

TWEAKR-Fc mutein H60K = molecular target: T3, TWEAKR-Fc mutein H60K (Homo sapiens, UniProt Q9NP84, H60K); assay: as above; settings: 62 ng/ml mutein coated, biotinylated IgG from 100 nM
T3 construct: the full-length ectodomain (amino acids 28-80); made in house
Method: as §1, §2, §3, §4

TWEAKR-Fc mutein L65Q = molecular target: T4, TWEAKR-Fc mutein L65Q (Homo sapiens, UniProt Q9NP84, L65Q); assay: as above; settings: 62 ng/ml mutein coated, biotinylated IgG from 100 nM
T4 construct: the full-length ectodomain (amino acids 28-80); made in house
Method: as §1, §2, §3, §4

TWEAKR-Fc mutein M50A = molecular target: T5, TWEAKR-Fc mutein M50A (Homo sapiens, UniProt Q9NP84, M50A); assay: as above; settings: 62 ng/ml mutein coated, biotinylated IgG from 100 nM
T5 construct: the full-length ectodomain (amino acids 28-80); made in house
Method: as §1, §2, §3, §4

TWEAKR-Fc mutein R56P = molecular target: T6, TWEAKR-Fc mutein R56P (Homo sapiens, UniProt Q9NP84, R56P); assay: as above; settings: 62 ng/ml mutein coated, biotinylated IgG from 100 nM
T6 construct: the full-length ectodomain (amino acids 28-80); made in house
Method: as §1, §2, §3, §4

TWEAKR-Fc mutein S40R = molecular target: T7, TWEAKR-Fc mutein S40R (Homo sapiens, UniProt Q9NP84, S40R); assay: as above; settings: 62 ng/ml mutein coated, biotinylated IgG from 100 nM
T7 construct: the full-length ectodomain (amino acids 28-80); made in house
Method: as §1, §2, §3, §4

TWEAKR-Fc mutein T33Q = molecular target: T8, TWEAKR-Fc mutein T33Q (Homo sapiens, UniProt Q9NP84, T33Q); assay: as above; settings: 62 ng/ml mutein coated, biotinylated IgG from 100 nM
T8 construct: the full-length ectodomain (amino acids 28-80); made in house
Method: as §1, §2, §3, §4

TWEAKR-Fc mutein W42A = molecular target: T9, TWEAKR-Fc mutein W42A (Homo sapiens, UniProt Q9NP84, W42A); assay: as above; settings: 62 ng/ml mutein coated, biotinylated IgG from 100 nM
T9 construct: the full-length ectodomain (amino acids 28-80); made in house
Method: as §1, §2, §3, §4

[2] = molecular target: T1, recombinant human TWEAKR protein (TPP-2305); settings: published data (WO2009/020933, WO2009/140177, literature); cited from earlier work

With `CC(C)(C)[C@H](c1nn(-c2cc(F)ccc2F)cc1Cc1ccccc1)N(CC[C@H](N)C(=O)NCCC(=O)NCCN1C(=O)CC(SC[C@H](N)C(=O)O)C1=O)C(=O)CO.O=C(O)C(F)(F)F` (some centres unmarked) [Example 92] the “Papp (B-A)” value (Caco-2 cells; Caco-2, 2 hours) was 0.4 ×10⁻⁶ cm/s and the Efflux ratio (Caco-2 cells; Papp (B-A) to Papp (A-B), Caco-2) was 3.

B1: 18.3.3(TPP-2193): comparative anti-TWEAKR antibody; variable domains from WO2009/020933, constant region added, "resulting in full-length IgGs" (protein)
light: DIVLTQSPASLAVSLGQRATISCKASQSVSTSTYSYMQWYQQRPGQSPKLLIKYASKLDSGVPARFSGSGSGTDFTLNIHPVEEEDTATYYCQHSWELPYTFGGGTRLEIKRADAAPTVSIFPPSSEQLTSGGASVVCFLNNFYPKDINVKWKIDGSERQNGVLNSWTDQDSKDSTYSMSSTLTLTKDEYERHNSYTCEATHKTSTSPIVKSFNRNEC
heavy: EVKLGESGGGLVQPGGSMKLSCVASGFPFTKYWMNWVRQSPEKGLEWVAEIRLKSDNYATHYAESAKGRFTISRDDSRSSVYLQMNNLRAEDTAIYYCSPTYADTMDYWGQGTSVTVSSAKTTAPSVYPLAPVCGDTTGSSVTLGCLVKGYFPEPVTLTWNSGSLSSGVHTFPAVLQSDLYTLSSSVTVTSSTWPSQSITCNVAHPASSTKVDKKIEPRGPTIKPCPPCKCPAPNLLGGPSVFIFPPKIKDVLMISLSPIVTCVVVDVSEDDPDVQISWFVNNVEVHTAQTQTHREDYNSTLRVVSALPIQHQDWMSGKEFKCKVNNKDLPAPIERTISKPKGSVRAPQVYVLPPPEEEMTKKQVTLTCMVTDFMPEDIYVEWTNNGKTELNYKNTEPVLDSDGSYFMYSKLRVEKKNWVERNSYSCSVVHEGLHNHHTTKSFSRTPG
modifications: Mus Musculus
For B1, the “ka” value [1] was 1.64e+07 M⁻¹ s⁻¹, the “kd” value [1] was 0.0285 s⁻¹ and the IC50 (TWEAKR-Fc WT (TPP-599)) was 0.001 to 0.15 nM. For the same molecule, the IC50 (TWEAKR-Fc mutein H60K) was 0.001 to 0.15 nM, the IC50 (TWEAKR-Fc mutein L65Q) was 0.001 to 0.15 nM and the IC50 (TWEAKR-Fc mutein M50A) was 0.001 to 0.15 nM. It also gave an IC50 (TWEAKR-Fc mutein R56P) greater than 50 nM, an IC50 (TWEAKR-Fc mutein S40R) of 0.001 to 0.15 nM and an IC50 (TWEAKR-Fc mutein T33Q) of 0.001 to 0.15 nM. The IC50 (TWEAKR-Fc mutein W42A) was greater than 50 nM and the Kd [2] was 0.2 nM.

B2: 136.1: "agonistic antibodies already described [e.g. PDL-192(TPP-1104), P4A8(TPP-1324), 136.1(TPP-2194)]" (protein)
light: DIVLTQSPASLTVSLGQRATISCRASQSVSTSSYSYMQWYQQRPGQPPKLLIKYATNLDSGVPARFSGSGSGTDFTLNIHPVEEEDAATYYCQHSWEIPYTFGGGTKLEIKRADAAPTVSIFPPSSEQLTSGGASVVCFLNNFYPKDINVKWKIDGSERQNGVLNSWTDQDSKDSTYSMSSTLTLTKDEYERHNSYTCEATHKTSTSPIVKSFNRNEC
heavy: EVKLEESGGGLVQPGGSMKLSCVASGFTFNNYWMSWVRQSPEKGLEWLAEIRLKSDNYATHYAESVKGKFTISRDDSKSRLYLQMNNLRAENTGIYYCTGGFADYFDYWGQGTTLTVSSAKTTAPSVYPLAPVCGDTTGSSVTLGCLVKGYFPEPVTLTWNSGSLSSGVHTFPAVLQSDLYTLSSSVTVTSSTWPSQSITCNVAHPASSTKVDKKIEPRGPTIKPCPPCKCPAPNLLGGPSVFIFPPKIKDVLMISLSPIVTCVVVDVSEDDPDVQISWFVNNVEVHTAQTQTHREDYNSTLRVVSALPIQHQDWMSGKEFKCKVNNKDLPAPIERTISKPKGSVRAPQVYVLPPPEEEMTKKQVTLTCMVTDFMPEDIYVEWTNNGKTELNYKNTEPVLDSDGSYFMYSKLRVEKKNWVERNSYSCSVVHEGLHNHHTTKSFSRTPG
modifications: Mus Musculus
For B2, the Kd [2] is listed as 0.7 nM.
